Measured values taken from PMC4897640, “Functional diversity of family 3 β-glucosidases from thermophilic cellulolytic fungus Humicola insolens Y1” (Scientific Reports, 2016).

Substrate: O=[N+]([O-])c1ccc(O[C@@H]2O[C@H](CO)[C@@H](O)[C@H](O)[C@H]2O)cc1
Assay: purified protein
Settings: 100 mM Na2HPO4-citric acid
[1] = optimal conditions (pH 5.5, 55 °C in table; 60 °C in text), pH 5.5

Protein	Km (optimal conditions) [µM]	Vmax (optimal conditions) [µmol/min/mg]	kcat (optimal conditions) [s⁻¹]	kcat/Km (optimal conditions) [M⁻¹ s⁻¹]	Km (pH 5.5, 60 °C, pH 5.5, 60.0 °C) [µM]	Vmax (pH 5.5, 60 °C, pH 5.5, 60.0 °C) [µmol/min/mg]	kcat (pH 5.5, 60 °C, pH 5.5, 60.0 °C) [s⁻¹]	kcat/Km (pH 5.5, 60 °C, pH 5.5, 60.0 °C) [M⁻¹ s⁻¹]	Km [1] [µM]	kcat/Km [1] [M⁻¹ s⁻¹]
HiBgl3B (Mycothermus thermophilus; I311F) (protein) RVVEPRDPVPQGYHAASYYPAPHGGWVSSWREAYEKAYALVSQMTLAEKVNITSGVGIYMGPCVGNTGSVDRLGFPQLCLQDSALGVASADNVTAFPAGITTGATWDKQLMYARGVAIGKEFRGKGANIHLGPSVGPLGRKPLGGRNWEGFGSDPVLQGKAAALHIRGVQEQGIIATIKHLVGNEQEMYRMYHIFQEGYSANIDDRTLHELYLWPFAEAVRAGVGAAMTAYNAVNGSACSQNSYLINGILKDELGFQGLVMSDWLSHISGVGSALAGLDLNMPGDTNFPLFGNSLWQYELTRAVLNGSVPVDRLNDMATRVVATWYKFGQDKNHPRPNFSSNTRSRDGPLYPGALFSPSGQVNWFVNVQEDHYLVARQVAQDAITLLKNNDSLLPLDAGDLTGGKLSVFGTDAQVNPDGPNSCLARACNKGTLGMGWGSGIADYPYMDDPIGAIRKRVPDVKFYNTDSFPWFFGTPENDEVAMVFISSDSGENTLTVEGNHGDRDSAKLRAWHDGDKLVQKVAEKFKNVIVVVHTVGPLDLEPWIELPSVKAVLFAHLPGQEAGESLTNVLFGDVSPSGHLPYSITRKASDLPDSIANLKGFTWGQVQDTYSEGLYIDYRYLQKHSIQPRFAFGHGLSYTNFSFTNATIRAITTPLSVTPPAPPATRPASVVAKYSTDIPPASEAYEPAGFSRIWRYLYPWLSKSDADAAHAIGTSKSKTYPYPPGYSTVQRASFPPAGGGEGGNPALWDVAYEVTVRVTNTGKRPGKASAQLYLQFPEGIEYDTPVLQLRDFEKTKELQPGESQELKLTLTRKDVSVWDVRRQNWVVPTAIDDKKGFTAWVGEASDKLKVACYTGEGRCVEGAKQPV	2420	6.07	9.61	3980	–	–	–	–	–	–
HiBgl3B (Mycothermus thermophilus; T517Y) (protein) RVVEPRDPVPQGYHAASYYPAPHGGWVSSWREAYEKAYALVSQMTLAEKVNITSGVGIYMGPCVGNTGSVDRLGFPQLCLQDSALGVASADNVTAFPAGITTGATWDKQLMYARGVAIGKEFRGKGANIHLGPSVGPLGRKPLGGRNWEGFGSDPVLQGKAAALHIRGVQEQGIIATIKHLVGNEQEMYRMYHIFQEGYSANIDDRTLHELYLWPFAEAVRAGVGAAMTAYNAVNGSACSQNSYLINGILKDELGFQGLVMSDWLSHISGVGSALAGLDLNMPGDTNIPLFGNSLWQYELTRAVLNGSVPVDRLNDMATRVVATWYKFGQDKNHPRPNFSSNTRSRDGPLYPGALFSPSGQVNWFVNVQEDHYLVARQVAQDAITLLKNNDSLLPLDAGDLTGGKLSVFGTDAQVNPDGPNSCLARACNKGTLGMGWGSGIADYPYMDDPIGAIRKRVPDVKFYNTDSFPWFFGTPENDEVAMVFISSDSGENYLTVEGNHGDRDSAKLRAWHDGDKLVQKVAEKFKNVIVVVHTVGPLDLEPWIELPSVKAVLFAHLPGQEAGESLTNVLFGDVSPSGHLPYSITRKASDLPDSIANLKGFTWGQVQDTYSEGLYIDYRYLQKHSIQPRFAFGHGLSYTNFSFTNATIRAITTPLSVTPPAPPATRPASVVAKYSTDIPPASEAYEPAGFSRIWRYLYPWLSKSDADAAHAIGTSKSKTYPYPPGYSTVQRASFPPAGGGEGGNPALWDVAYEVTVRVTNTGKRPGKASAQLYLQFPEGIEYDTPVLQLRDFEKTKELQPGESQELKLTLTRKDVSVWDVRRQNWVVPTAIDDKKGFTAWVGEASDKLKVACYTGEGRCVEGAKQPV	2370	9.51	15.1	6360	–	–	–	–	–	–
HiBgl3B (Mycothermus thermophilus; I311F/I81W/T517Y) (protein) RVVEPRDPVPQGYHAASYYPAPHGGWVSSWREAYEKAYALVSQMTLAEKVNITSGVGWYMGPCVGNTGSVDRLGFPQLCLQDSALGVASADNVTAFPAGITTGATWDKQLMYARGVAIGKEFRGKGANIHLGPSVGPLGRKPLGGRNWEGFGSDPVLQGKAAALHIRGVQEQGIIATIKHLVGNEQEMYRMYHIFQEGYSANIDDRTLHELYLWPFAEAVRAGVGAAMTAYNAVNGSACSQNSYLINGILKDELGFQGLVMSDWLSHISGVGSALAGLDLNMPGDTNFPLFGNSLWQYELTRAVLNGSVPVDRLNDMATRVVATWYKFGQDKNHPRPNFSSNTRSRDGPLYPGALFSPSGQVNWFVNVQEDHYLVARQVAQDAITLLKNNDSLLPLDAGDLTGGKLSVFGTDAQVNPDGPNSCLARACNKGTLGMGWGSGIADYPYMDDPIGAIRKRVPDVKFYNTDSFPWFFGTPENDEVAMVFISSDSGENYLTVEGNHGDRDSAKLRAWHDGDKLVQKVAEKFKNVIVVVHTVGPLDLEPWIELPSVKAVLFAHLPGQEAGESLTNVLFGDVSPSGHLPYSITRKASDLPDSIANLKGFTWGQVQDTYSEGLYIDYRYLQKHSIQPRFAFGHGLSYTNFSFTNATIRAITTPLSVTPPAPPATRPASVVAKYSTDIPPASEAYEPAGFSRIWRYLYPWLSKSDADAAHAIGTSKSKTYPYPPGYSTVQRASFPPAGGGEGGNPALWDVAYEVTVRVTNTGKRPGKASAQLYLQFPEGIEYDTPVLQLRDFEKTKELQPGESQELKLTLTRKDVSVWDVRRQNWVVPTAIDDKKGFTAWVGEASDKLKVACYTGEGRCVEGAKQPV	2480	2.68	4.24	1710	–	–	–	–	–	–
HiBgl3A (Mycothermus thermophilus) (protein) NRHRQVIGRNHLNHHHRSQRELAYSPPSYPSPWMDPKAAEWQNAYAKAKAFVSKLTLLEKVNLTTGVGWASEQCVGNTGSVPRLGLRGLCLHDSPLGIRGSDYNSAFPSGQTTAATFDRILMYRRGYAMGKEAKGKGINVLLGPVAGPLGRMPAAGRNWEGFSPDPVLTGVGMAETIKGIQDAGVVACAKHLIGNEQEHFRQAGEDYGFNITEALSSNIDDKTMHELYLWPFVDAVRAGVGSVMCAYTQVNNSYSCQNSYLLNYLLKNELGFQGFVMSDWQAQHAGVSAAVAGLDMSMPGDTTFNTGVSFWGANLTLAVLNGTVPRYRIDDMAMRIMAAFFKVHPDIHLDPVNFSFWTRQTYGPLHWRAGDGYQQVNFHVDVREDHHLLIREIAAKGTVLLKNTGGLPLKKPKFIAVIGDDAGPNPNGPNSCDDRGCNNGTLAMGWGSGTANFPYLITPDAALQARALRDGTRYESVLTNYALEKTETLVSQANATAIVFVNANSGEGYTRVDGNMGDRKNLTLWGNGDDLIKNVSSWCSNTIVVIHSTGPVLLTDWYNSPNITAILWAGLPGQESGNSLVDVLYGDVNPAGRTPFTWGATRESYGVDVMYKPNNDDGAPQQDFDEGVFIDYRYFDREDTPVIYEFGHGLSYTTFNYSNLKIEKHNAEPYKPTTGKTTPAPTFGQDDAYGYTGSEKYLFPPSPFRRITDYIYPYLNSTDPHEASLDPHYGQTAEQFLPPGALRADEQPLLRASGQHQPGGNPGLWDVLYTITADITNMGSVTGDEVPQLYVSLGGPQDPKVVLRGFDRLREIGPGETRQFMARLTRRDLSNWDPVLQDWVVGGHKKTVFVGKSSRKLELSAELP	–	–	–	–	900	46.2	73.1	81600	–	–
HiBgl3A (Mycothermus thermophilus; Y529T) (protein) NRHRQVIGRNHLNHHHRSQRELAYSPPSYPSPWMDPKAAEWQNAYAKAKAFVSKLTLLEKVNLTTGVGWASEQCVGNTGSVPRLGLRGLCLHDSPLGIRGSDYNSAFPSGQTTAATFDRILMYRRGYAMGKEAKGKGINVLLGPVAGPLGRMPAAGRNWEGFSPDPVLTGVGMAETIKGIQDAGVVACAKHLIGNEQEHFRQAGEDYGFNITEALSSNIDDKTMHELYLWPFVDAVRAGVGSVMCAYTQVNNSYSCQNSYLLNYLLKNELGFQGFVMSDWQAQHAGVSAAVAGLDMSMPGDTTFNTGVSFWGANLTLAVLNGTVPRYRIDDMAMRIMAAFFKVHPDIHLDPVNFSFWTRQTYGPLHWRAGDGYQQVNFHVDVREDHHLLIREIAAKGTVLLKNTGGLPLKKPKFIAVIGDDAGPNPNGPNSCDDRGCNNGTLAMGWGSGTANFPYLITPDAALQARALRDGTRYESVLTNYALEKTETLVSQANATAIVFVNANSGEGTTRVDGNMGDRKNLTLWGNGDDLIKNVSSWCSNTIVVIHSTGPVLLTDWYNSPNITAILWAGLPGQESGNSLVDVLYGDVNPAGRTPFTWGATRESYGVDVMYKPNNDDGAPQQDFDEGVFIDYRYFDREDTPVIYEFGHGLSYTTFNYSNLKIEKHNAEPYKPTTGKTTPAPTFGQDDAYGYTGSEKYLFPPSPFRRITDYIYPYLNSTDPHEASLDPHYGQTAEQFLPPGALRADEQPLLRASGQHQPGGNPGLWDVLYTITADITNMGSVTGDEVPQLYVSLGGPQDPKVVLRGFDRLREIGPGETRQFMARLTRRDLSNWDPVLQDWVVGGHKKTVFVGKSSRKLELSAELP	2450	43	68.2	27800	–	–	–	–	–	–
HiBgl3C (Mycothermus thermophilus) (protein) APNCPVVPRQASGTAAWDTAYASARAAVARLSQQDKINIVTGIGWERGPCVGNTAPVNSIGYPQLCLQDGPLGIRFATGTTAFTPGVQAASTWDVDLIRQRGEYLGAEARAVGVHVLLGPVAGALGKIPHGGRNWEGFGSDPYLAGICMAETIEAIQSQGVQACAKHYIVNEQEWMRETMSSNVDDRTMHEIYLWPFADAAHSNVASFMCSYNKINGTWACESDSVQNKLLKQELGFRGYIMSDWNAQHTTVGSANSGMDMTMPGTDFSGGNVLWGPQLNNAVNSGQVSRARLDDMATRILAAWYLVGQDKGYPQVNLRLNVQGNHKENVRAVARDGIVLLRNEGNILPLGRPSRIAVVGSGAVIGRHAQNGCQDKGCNDGALGMGWGSGSVNYPYFVAPYDAIRERASRDGTQVSLHSSDNTNGVQNVVQGADVAIVFITADSGEGYITVEGHPGDRNHLDPWHNGNQLVQAVAAANKNTIVVVHSTGPIILETILNTPGVRAVVWAGLPSQENGNAIVDILYGSTSPSGKLVYTIAKRPEDYGVSIVRGDDNFREGVFVDYRWFDQNNIEPRFEFGFGLSYTNFSYSGLSITSNARAGPATGPTIPGGPADLWETVATVTAQITNTGGVAGAEVAQLYLTLPPTAPPAGPRQLRGFTKLKLQPGQTGTATFKLRKRDLSYWDVGRQQWVVPSGRFTISVGASSRDIRLTGSIDV	–	–	–	–	–	–	–	–	200	1.56e+06
